Data taken from paper PMC10533390, “The interface of condensates of the hnRNPA1 low-complexity domain promotes formation of amyloid fibrils” (Nature Chemistry, 2023).

B1: hnRNPA1-A low-complexity domain (domain or fragment, UniProt P09651 186-250, looked up)
chain: MASASSSQRGRSGSGNFGGGRGGGFGGNDNFGRGGNFSGRGGFGGSRGGGGYGGSGDGYNGFGNDGSNFGGGGSYNDFGNYNNQSSNFGPMKGGNFGGRSSGPYGGGGQYFAKPRNQGGYGGSSSSSSYGSGRRF
notes: 15.2 kDa; The two stretches joined are the natural splice variant; also called A-LCD; hnRNPA1–A-LCD; source: E. coli BL21-Gold (DE3), purified (Ni-NTA, SEC on Superdex 75 in 8 M urea)
B2: hnRNPA1-B low-complexity domain (domain or fragment, UniProt P09651 186-372, looked up)
chain: MASASSSQRGRSGSGNFGGGRGGGFGGNDNFGRGGNFSGRGGFGGSRGGGGYGGSGDGYNGFGNDGGYGGGGPGYSGGSRGYGSGGQGYGNQGSGYGGSGSYDSYNNGGGGGFGGGSGSNFGGGGSYNDFGNYNNQSSNFGPMKGGNFGGRSSGPYGGGGQYFAKPRNQGGYGGSSSSSSYGSGRRF
notes: C-terminal low-complexity domain of heterogeneous nuclear ribonucleoprotein A1, splicing variant hnRNPA1-B (52 amino acids more than hnRNPA1-A); 19.8 kDa; also called B-LCD; hnRNPA1–B-LCD; source: E. coli BL21-Gold (DE3), purified (Ni-NTA, SEC on Superdex 75 in 2 M urea)

Target: the molecule itself
Test: ThT fluorescence kinetics + AFM + TEM + Raman spectroscopy (amyloid fibril formation); self-association into amyloid fibrils starting from condensates; 30 µM protein in 50 mM Tris pH 7.5, 200 mM NaCl, 2 mM β-mercaptoethanol, 20 µM ThT, 384-well plates; re-scan confocal images after ~70 h

| Protein | binding result |
| --- | --- |
| B1 | binds |
| B2 | binds |
